This passage reports Kd results from paper PMC9352680, “A comprehensive thermodynamic model for RNA binding by the Saccharomyces cerevisiae Pumilio protein PUF4”.

The target of the data set is T1, PUF4 RNA-binding domain (Saccharomyces cerevisiae, UniProt P25339 537-888).
T1 sequence: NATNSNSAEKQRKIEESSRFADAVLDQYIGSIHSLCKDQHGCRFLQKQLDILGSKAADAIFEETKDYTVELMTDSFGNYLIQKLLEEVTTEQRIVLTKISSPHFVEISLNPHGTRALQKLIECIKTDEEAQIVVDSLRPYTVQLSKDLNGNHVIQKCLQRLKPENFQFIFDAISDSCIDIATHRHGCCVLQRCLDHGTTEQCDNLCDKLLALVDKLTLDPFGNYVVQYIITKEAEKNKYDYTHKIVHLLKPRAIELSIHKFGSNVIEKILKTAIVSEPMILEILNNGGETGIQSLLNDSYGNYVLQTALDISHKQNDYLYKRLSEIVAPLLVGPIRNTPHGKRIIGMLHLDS
Description: Mg; RNA-MaP; 20 mM Na-HEPES pH 7.4, 30 mM KOAc, 0.75 mM MgCl2, 0.1% Tween-20, 5% glycerol, 0.1 mg/mL BSA, 2 mM DTT; 25 C; 0.0125-409.6 nM protein. As to conditions: tags: N-His6-TEV cleaved; C-SNAP kept, Cy3B-labelled; label: tethered on chip by stalled RNA polymerase.
Molecule UCUCUUUGUACACGCUCUCUU (ssRNA) [Ic_S1_P4E.1_K4.1_C4.1_H4.1_A4.1_[T5C]_[T7C]_F4.1_[T8G]_[A9C]_T4.1] displayed a Kd of 145 nM.

For UCUCUUUGUACAACGUCUCUU (ssRNA) [Ic_S1_P4E.1_K4.1_C4.1_H4.1_A4.1_[T5C]_[T7A]_F4.1_[T8C]_[A9G]_T4.1], the Kd turned out to be 92.3 nM.

Molecule UCUCUUUGUACACAUUCUCUU (ssRNA) [Ic_S1_P4E.1_K4.1_C4.1_H4.1_A4.1_[T5C]_[T7C]_F4.1_[T8A]_[A9T]_T4.1] showed an equilibrium dissociation constant (Kd) of 22.6 nM.

Consider UCUCUUUGUACAAGCUCUCUU (ssRNA) [Ic_S1_P4E.1_K4.1_C4.1_H4.1_A4.1_[T5C]_[T7A]_F4.1_[T8G]_[A9C]_T4.1], for which binding was characterised by a dissociation constant (Kd) of 692 nM.

Regarding UCUCUUUGUACAGUGUCUCUU (ssRNA) [Ic_S1_P4E.1_K4.1_C4.1_H4.1_A4.1_[T5C]_[T7G]_F4.1_[A9G]_T4.1], the dissociation constant (Kd) is 16.5 nM.

Consider UCUCUUUGUACAGCGUCUCUU (ssRNA) [Ic_S1_P4E.1_K4.1_C4.1_H4.1_A4.1_[T5C]_[T7G]_F4.1_[T8C]_[A9G]_T4.1], for which the affinity, expressed as Kd, was 112 nM.

On to UCUCUUUGUACAACAUCUCUU (ssRNA) [Ic_S1_P4E.1_K4.1_C4.1_H4.1_A4.1_[T5C]_[T7A]_F4.1_[T8C]_T4.1], for which the affinity, expressed as Kd, was 14.4 nM. This Kd lies about 7.8-fold lower than the previous one.

In the case of UCUCUUUGUACAGUUUCUCUU (ssRNA) [Ic_S1_P4E.1_K4.1_C4.1_H4.1_A4.1_[T5C]_[T7G]_F4.1_[A9T]_T4.1], the dissociation constant Kd came to 13.3 nM.

The molecule UCUCUUUGUACACGAUCUCUU (ssRNA) [Ic_S1_P4E.1_K4.1_C4.1_H4.1_A4.1_[T5C]_[T7C]_F4.1_[T8G]_T4.1] returned a dissociation constant Kd of 60.9 nM.

UCUCUUUGUACAACUUCUCUU (ssRNA) [Ic_S1_P4E.1_K4.1_C4.1_H4.1_A4.1_[T5C]_[T7A]_F4.1_[T8C]_[A9T]_T4.1] had a Kd of 33.9 nM.

Regarding UCUCUUAGUAUAUUUCUCUU (ssRNA) [Ib_S1_P3E.1_K3.1_C3.1_H3.1_[T1A]_A3.1_F3.1_[A8T]_T3.1], the affinity, expressed as Kd, was 1220 nM.

For the molecule UCUCUUUGUACACUUUCUCUU (ssRNA) [Ic_S1_P4E.1_K4.1_C4.1_H4.1_A4.1_[T5C]_[T7C]_F4.1_[A9T]_T4.1], binding was characterised by a dissociation constant (Kd) of 7.32 nM.

UCUCUUUGUACAGCUUCUCUU (ssRNA) [Ic_S1_P4E.1_K4.1_C4.1_H4.1_A4.1_[T5C]_[T7G]_F4.1_[T8C]_[A9T]_T4.1]: binding was characterised by a dissociation constant (Kd) of 78.3 nM.

The molecule UCUCUUUGUACACUGUCUCUU (ssRNA) [Ic_S1_P4E.1_K4.1_C4.1_H4.1_A4.1_[T5C]_[T7C]_F4.1_[A9G]_T4.1] came in with an equilibrium dissociation constant (Kd) of 5.05 nM.

With UCUCUUUGUACACCGUCUCUU (ssRNA) [Ic_S1_P4E.1_K4.1_C4.1_H4.1_A4.1_[T5C]_[T7C]_F4.1_[T8C]_[A9G]_T4.1], the affinity, expressed as Kd, was 407 nM.

The molecule UCUCUUUGUACUUUCUCUCUU (ssRNA) [Ic_S1_P4E.1_K4.1_C4.1_H4.1_A4.1_[T5C]_[A6T]_F4.1_[A9C]_T4.1] showed a Kd of 39.6 nM.

On to UCUCUUUGUACUUUUUCUCUU (ssRNA) [Ic_S1_P4E.1_K4.1_C4.1_H4.1_A4.1_[T5C]_[A6T]_F4.1_[A9T]_T4.1], for which binding was characterised by a dissociation constant (Kd) of 19.2 nM.

Regarding UCUCUUUUUAUAUCUCUCUU (ssRNA) [Ib_S1_P3E.1_K3.1_C3.1_H3.1_[G2T]_A3.1_F3.1_[A8C]_T3.1], the dissociation constant (Kd) is greater than 2300 nM.

Turning to UCUCUUUGUACACAAUCUCUU (ssRNA) [Ic_S1_P4E.1_K4.1_C4.1_H4.1_A4.1_[T5C]_[T7C]_F4.1_[T8A]_T4.1], the Kd is 17.1 nM.

UCUCUUUGUACAGUCUCUCUU (ssRNA) [Ic_S1_P4E.1_K4.1_C4.1_H4.1_A4.1_[T5C]_[T7G]_F4.1_[A9C]_T4.1]: the Kd was 17 nM.

In the case of UCUCUUUGUACACGGUCUCUU (ssRNA) [Ic_S1_P4E.1_K4.1_C4.1_H4.1_A4.1_[T5C]_[T7C]_F4.1_[T8G]_[A9G]_T4.1], the dissociation constant Kd stood at 468 nM.

As for UCUCUUUGUACAACCUCUCUU (ssRNA) [Ic_S1_P4E.1_K4.1_C4.1_H4.1_A4.1_[T5C]_[T7A]_F4.1_[T8C]_[A9C]_T4.1], the affinity, expressed as Kd, was 81 nM.

UCUCUUUGUACACUCUCUCUU (ssRNA) [Ic_S1_P4E.1_K4.1_C4.1_H4.1_A4.1_[T5C]_[T7C]_F4.1_[A9C]_T4.1] had a Kd of 8.95 nM.

Molecule UCUCUUUGUACAGCAUCUCUU (ssRNA) [Ic_S1_P4E.1_K4.1_C4.1_H4.1_A4.1_[T5C]_[T7G]_F4.1_[T8C]_T4.1] had a dissociation constant Kd of 38.5 nM.

UCUCUUUAUAUAUGUCUCUU (ssRNA) [Ib_S1_P3E.1_K3.1_C3.1_H3.1_[G2A]_A3.1_F3.1_[A8G]_T3.1]: the equilibrium dissociation constant (Kd) is greater than 2300 nM.

As for UCUCUUUGUACACCCUCUCUU (ssRNA) [Ic_S1_P4E.1_K4.1_C4.1_H4.1_A4.1_[T5C]_[T7C]_F4.1_[T8C]_[A9C]_T4.1], the dissociation constant Kd was 118 nM.
